Source: patent US20210206849A1 (UNIVERSITY OF CONNECTICUT, published 2021)

Legend:
[1] = target: T1, Human CD300c-Ig fusion protein (human); assay: ELISA screen of hybridomas
T1 construct: also called hCD300c-Ig; hCD300-Ig
T1 chain: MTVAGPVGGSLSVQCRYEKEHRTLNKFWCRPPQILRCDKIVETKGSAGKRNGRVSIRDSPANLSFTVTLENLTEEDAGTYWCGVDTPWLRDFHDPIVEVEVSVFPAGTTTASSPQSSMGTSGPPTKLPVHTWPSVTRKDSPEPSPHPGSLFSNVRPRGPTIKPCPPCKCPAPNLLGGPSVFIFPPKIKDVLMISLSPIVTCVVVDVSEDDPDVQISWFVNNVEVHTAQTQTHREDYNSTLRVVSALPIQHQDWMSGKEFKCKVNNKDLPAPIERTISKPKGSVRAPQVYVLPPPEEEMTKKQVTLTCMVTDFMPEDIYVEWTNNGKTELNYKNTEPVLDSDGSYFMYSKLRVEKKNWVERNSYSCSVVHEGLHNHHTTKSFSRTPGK

[2] = target: T2, Control Ig (recombinant mouse IgG2a Fc protein) (mouse, UniProt P01863 98-330 = IgG part, limits assumed); assay: ELISA screen of hybridomas
T2 construct: domain: Fc; Bought control protein; also called control mouse IgG2a Fc; control Ig protein

[3] = target: T3, mouse BTLA on transfected HEK-293 cells (mouse, UniProt Q7TSA3 30-306); assay: flow cytometry, biotinylated mCD300c2-Ig on transfected HEK-293 cells
T3 construct: whole, on cells
T3 sequence (looked up): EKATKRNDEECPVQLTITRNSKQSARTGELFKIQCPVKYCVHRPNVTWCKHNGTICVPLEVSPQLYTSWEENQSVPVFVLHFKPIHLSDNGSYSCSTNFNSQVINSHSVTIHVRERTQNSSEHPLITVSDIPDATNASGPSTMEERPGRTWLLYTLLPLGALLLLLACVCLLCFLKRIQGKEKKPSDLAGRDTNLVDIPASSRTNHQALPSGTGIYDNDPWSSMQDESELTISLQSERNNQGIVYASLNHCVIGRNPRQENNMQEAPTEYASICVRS
Method: (§1) To determine whether mCD300c binds to molecules previously identified as receptors of the known B7 family members, HEK-293 cells were transfected with an expression vector containing the mouse CD28. CTLA4, PD-1, BTLA or ICOS gene. The expression of these receptors on the transfected 293 cells was confirmed by flow cytometric analysis with the antibodies against the respective receptors (FIG. 5C). The binding of mCD300c to the transfected HEK-293 cells was then analyzed.

[4] = target: T4, mouse ICOS on transfected HEK-293 cells (mouse, UniProt Q9WVS0 21-200); assay: as above
T4 construct: whole, on cells
T4 sequence (looked up): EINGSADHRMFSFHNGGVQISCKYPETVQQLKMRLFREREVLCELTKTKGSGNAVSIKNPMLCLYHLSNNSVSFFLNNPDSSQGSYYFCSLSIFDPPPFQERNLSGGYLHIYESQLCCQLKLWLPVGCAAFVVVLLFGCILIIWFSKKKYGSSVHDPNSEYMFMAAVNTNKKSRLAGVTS
Method: as §1

[5] = target: T5, mouse CD28 on transfected HEK-293 cells (mouse, UniProt P31041 20-218); assay: as above
T5 construct: whole, on cells
T5 sequence (looked up): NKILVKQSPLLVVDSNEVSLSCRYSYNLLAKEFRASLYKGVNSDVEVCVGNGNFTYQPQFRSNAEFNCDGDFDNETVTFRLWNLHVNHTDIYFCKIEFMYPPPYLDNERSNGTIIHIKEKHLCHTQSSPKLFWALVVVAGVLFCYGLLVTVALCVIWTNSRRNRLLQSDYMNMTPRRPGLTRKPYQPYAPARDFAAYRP
Method: as §1

[6] = target: T6, mouse PD-1 on transfected HEK-293 cells (mouse, UniProt Q02242 25-288); assay: as above
T6 construct: whole, on cells
T6 sequence (looked up): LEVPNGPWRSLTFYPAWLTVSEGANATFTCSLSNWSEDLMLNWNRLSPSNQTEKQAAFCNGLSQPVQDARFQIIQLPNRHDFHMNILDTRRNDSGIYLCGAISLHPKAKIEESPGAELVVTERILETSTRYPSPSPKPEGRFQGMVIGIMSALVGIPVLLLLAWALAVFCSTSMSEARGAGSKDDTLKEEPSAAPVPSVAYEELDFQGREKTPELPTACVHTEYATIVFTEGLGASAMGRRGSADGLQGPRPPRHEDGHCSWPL
Method: as §1

[7] = target: T7, mouse CTLA-4 on transfected HEK-293 cells (mouse, UniProt P09793 36-223); assay: as above
T7 construct: whole, on cells
Method: as §1

[8] = target: T3, mouse BTLA on transfected HEK-293 cells; assay: flow cytometry, biotinylated Skint8-Ig and streptavidin-PE on transfected HEK-293 cells
Method: (§2) FIG. 15. The expression pattern of the Skint8 putative receptor. (A, B) Spleen cells were harvested from C57BL/6 mice. To obtain activated T cells, the spleen cells were incubated with anti-CD3 (1 μg/ml) and anti-CD28 (0.5 μg/ml) antibodies for 3 days. To obtain activated B cells, monocytes and DCs, the spleen cells were incubated with LPS (10 μg/ml) for 3 days. The freshly harvested and activated immune cells were stained with biotinylated Skint8-Ig or control Ig, followed by streptavidin-PE, as well as anti-CD4, CD8, B220, CD11b, or CD11c antibodies to identify the immune cells. (A) Representative flow cytometric profiles and (B) Statistical analysis showing the binding of Skint8-Ig or control Ig to freshly harvested and activated immune cells. (B) Data are presented as relative fluorescence intensity (RFI) for cell binding of Skint8-Ig versus control Ig. (C) HEK-293 cells were transfected with an expression vector containing the murine PD-, CD28, BTLA, CTLA-4, or ICOS gene and screened for cells stably expressing each gene. The transfected cells were stained with antibody against the respective PD-1, CD28, BTLA, CTLA-4, or ICOS protein (open histograms) or isotype antibody (shaded histograms). Representative flow cytometric profiles showing the expression of each receptor. (D) PD-, CD28, BTLA, CTLA-4, or ICOS gene-transfected HEK-293 cells were stained with biotinylated Skint8-Ig or control Ig, followed by streptavidin-PE. Representative flow cytometric profiles showing the binding of Skint8-Ig (open histograms) or control Ig protein (shaded histograms) to the transfected cells. The data are representative of 3 independent experiments.
(§3) Single cell suspensions of organs were stained with the fluorochrome-conjugated antibodies protein as described (38-41). Direct or indirect staining of fluorochrome-conjugated antibodies included: CD4, CD8, B220, CD11c, CD11b, F4/80, CD69, CD44, CD62L, IFNγ, TNFα, IL-2, IL-10, CD28, CTLA-4, PD-1, BTLA, and ICOS (BioLegend, or BD Biosciences, San Jose, Calif., San Diego, Calif.). Skint8-g, Skint8 IgV-Ig or Skint8 IgC-Ig proteins were biotinylated with sulfo-NHS-LC-Biotin (Pierce) and detected by streptavidin-PE. The samples were analyzed on a FACSCalibur or LSRFortessa X-20 Cell Analyzer (BD Biosciences). Data analysis was done using FlowJo software (Ashland, Oreg.).

[9] = target: T4, mouse ICOS on transfected HEK-293 cells; assay: as above
Method: as §2, §3

[10] = target: T5, mouse CD28 on transfected HEK-293 cells; assay: as above
Method: as §2, §3

[11] = target: T6, mouse PD-1 on transfected HEK-293 cells; assay: as above
Method: as §2, §3

[12] = target: T7, mouse CTLA-4 on transfected HEK-293 …; assay: as above
Method: as §2, §3

[13] = target: T3, mouse BTLA on transfected HEK-293 cells; assay: flow cytometry, biotinylated mBTN5-Ig and streptavidin-PE on transfected HEK-293 cells
Method: (§4) FIG. 20. The expression pattern of the mBTN5 putative receptor. (A) Splenocytes from C57BL/6 mice were freshly harvested and analyzed for resting immune cells. For T cell activation, splenocytes were incubated with anti-CD3 (1 μg/ml) and anti-CD28 (0.5 μg/ml) antibodies for 3 days. For the activation of B cells, DCs and monocytes, splenocytes were incubated with LPS (10 μg/ml) for 3 days. The resting and active immune cells were stained with anti-CD4, CD8, B220, CD11c, or CD11b antibodies, and biotinylated mBTN5-Ig or control Ig, followed by streptavidin-PE. Representative flow cytometric profiles showing the binding of mBTN5-Ig or control Ig to resting and activated immune cells. (B, C) HEK-293 cells were transfected with an expression vector containing murine PD-1, CD28, BTLA, CTLA-4, or ICOS gene. The transfected cells were stained with (B) antibodies against the respective PD-1, CD28, BTLA, CTLA-4, or ICOS protein, (C) biotinylated mBTN5-Ig or control Ig, followed by streptavidin-PE. Representative flow cytometric profiles showing the binding of (B) the antibodies or (C) mBTN5-Ig to the transfected cells. Representative of 3 independent experiments.

[14] = target: T4, mouse ICOS on transfected HEK-293 cells; assay: as above
Method: as §4

[15] = target: T5, mouse CD28 on transfected HEK-293 cells; assay: as above
Method: as §4

[16] = target: T6, mouse PD-1 on transfected HEK-293 cells; assay: as above
Method: as §4

[17] = target: T7, mouse CTLA-4 on transfected HEK-293 …; assay: as above
Method: as §4

B1: anti-hCD300c mAb (clone B47-1D2) (antibody, V domains shown)
VH: QIQLVQSGPELRKPGETVKISCKASGYTFTIYGMNWMKQAPGKGLKWMGWINTYTGEPTYADDFKGRFAFSLETSASTAFLQINNLTNEDTATYFCARSRFAYWGQGTLVTVSA
VL: DIVMTQSQKFMSTSVGDRVSVTCKASQNVGTNVAWYQQKPGQSPKALIYSASYRYSGVPDRFTGSRSGTDFTLTISNVQSEDLAEYVCQQYNSYPLTFGAGTKLELK
notes: Mouse hybridoma mAb; also called anti-CD300c mAb
B1: binds [1]; no binding [2].

B2: mCD300c2-Ig fusion protein (Fc fusion)
chain: CVPLHGPSTITGTVGKSLSVSCQYEEKFKTKDKFWCRGSLKVLCKDIVKTSSSEEVRNGRVTIRDHPDNLTFTVTYESLTLEDADTYMCAVDISLFDGSLGFDKYFKIELSVVPSEDPVTGSSLESGRDILESPTSSVGHTHPSVTTDDTIPTPCPQPRSLRSSLYFRVLVS
modifications: biotinylated with sulfo-NHS-LC-Biotin for flow cytometry (sites not given)
notes: Made in HEK293F cells; also called mCD300c-Ig; not shown: constant region of mouse IgG2a from the pCMV6-AC-FC-S expression vector (ORIGENE)
B2: no binding [3]; no binding [4]; no binding [5]. B2: no binding [6]; no binding [7].

B3: Mouse Skint8-Ig fusion protein (Fc fusion)
chain: EKLRVTTPTRHLLARVGGQAELSCQVIPPHSVMHMEVRWFRSGHSQPVYLYRGGHKMSEEAAPEYANRTEFVKEAIGEGKVSLRIYNINILDDGPYQCSFNDSGFIDVAIMNLNVTAVGLETEIHVQAPDADGVMVECNTGGWFPRPQMEWRDSKGATLPHSLKSYSQDEARFFHMKMTLLLTNMSHGSIICCISNPVTGEEKQTSIIPRGPTIKPCPPCKCPAPNLLGGPSVFIFPPKIKDVLMISLSPIVTCVVVDVSEDDPDVQISWFVNNVEVHTAQTQTHREDYNSTLRVVSALPIQHQDWMSGKEFKCKVNNKDLPAPIERTISKPKGSVRAPQVYVLPPPEEEMTKKQVTLTCMVTDFMPEDIYVEWTNNGKTELNYKNTEPVLDSDGSYFMYSKLRVEKKNWVERNSYSCSVVHEGLHNHHTTKSFSRTPGK
modifications: biotinylated with sulfo-NHS-LC-Biotin in the flow cytometry assays (sites not given)
notes: Made in HEK-293 cells; also called Skint8-IgG Fc
B3: no binding [8]; no binding [9]; no binding [10]. B3: no binding [11]; no binding [12].

B4: mBTN5-Ig fusion protein (Fc fusion)
chain: QPPVQVLGDAGKVYIAPLRDTANLPCPLFLWPNMVLSEMRWYRPGHLPRTQAVHVFRDGQDRDEDLMPEYKGRTALVRDAHKESYILQISNVRLEDRGLYQCQVWVGNS
modifications: biotinylated with sulfo-NHS-LC-Biotin (sites not given)
notes: Made in HEK-293 cells; not shown: constant region of mouse IgG2a from the pCMV6-AC-FC-S expression vector (ORIGENE)
B4: no binding [13]; no binding [14]; no binding [15]. B4: no binding [16]; no binding [17].

B5: anti-hTAPBPL mAb (clone 54) (antibody, V domains shown)
VH: DVQLQESGPGLVKPSQTLSLTCSVTGYSLTSGYFWHWIRQFPGNKLEWMGYISYSGTTNYNPSLKNRISITHDSSKNQFFLNLNSVTAEDTATYFCAGDDWDWFAYWGQGTLVTVSA
VL: ENVLTQSPAIMSASPGEKVTMTCSASSSVNYMHWYQQKSSTSPKLWIYDTSKLASGVPGRFSGSGSGNSYSLTISSMEAEDVATYYCFQGSGYPLTFGSGTKLEIK
notes: Mouse hybridoma mAb; also called anti-TAPBPL mAb
B5: no binding [2].
